Source: PMC6774396 (Frontiers in Immunology, 2019)
Numbering of substitutions follows the chain as printed. Numbers in names are those of the source.

Experiments:
[1] = system: ΔM-N L-selectin-GFP/RFP in THP-1 cells; assay: Phos-tag Western blot of L-selectin serine phosphorylation; format: cell-based, human; details: 100 nM PMA, 15 min; phos-tag gel
THP-1 cells = assay: Antibody-mediated clustering (AMC) of L-selectin-GFP/RFP, FLIM/FRET; format: cell-based, human; details: DREG56 plus secondary antibody
Description: (A) Schematic representation of the cleavage site, transmembrane domain (TMD), and cytoplasmic tail of human L-selectin. Red underlined region of the cleavage site denotes the amino acids that are deleted in ΔM-N L-selectin. […] Red arrow points to the position of the cut site of the L-selectin cleavage domain. (B) Cells expressing matched levels of L-selectin-GFP/RFP in the following forms: WT, ΔM-N, SSAA, ΔM-N^SSAA, and R357A were subjected to AMC using Alexa Fluor 647-conjugated DREG56 or isotype-matched control, followed by goat anti-mouse secondary antibody (see Materials and Methods for more detail). Cells were plated onto poly-L-lysine-coated coverslips and prepared for FLIM/FRET analysis (see materials and methods). FLIM was used to measure the FRET efficiency between the GFP/RFP donor/acceptor pairs as a direct function of cytoplasmic tail clustering […]. At least 45 individual cells were analyzed over 3 independent clustering assays. (C) Representative images are shown for each cell line. The lifetime of fluorescence (Lftm) is expressed in a pseudocolour scale from red (low lifetime with a very high probability of interaction) to blue (high lifetime with a very low probability of interaction). […] Cells were lysed directly in protein loading buffer (containing the reducing agent, dithiothreitol) and resolved onto standard (lower panel) or phos-tag (upper panel) polyacrylamide gels. Antibodies to GFP and RFP were used to, respectively, probe ΔM-N and ΔM-N^SSAA on Western blots. […] Statistics: One-Way ANOVA Tukey's multiple comparison test. **p ≤ 0.01; ***p ≤ 0.001; ****p ≤ 0.0001.
THP-1 cells were adjusted the night before AMC to a density of 0.5 ×10^6 cells per mL. On the same day, 13 mm diameter glass coverslips (thickness “1”) were placed into the base of a 24 well dish, spotted with 100 μL of poly-L-lysine (PLL) to immobilize according to manufacturer's instruction. On the day of the assay, THP-1 cells were counted and adjusted to a density of 1 ×10^6 per mL in 500 μL containing antibody labeling buffer (RPMI culture medium containing FcR block [Miltenyi Biotec]). Cells were labeled with 2 μg per mL DREG56 for 30 min at 4°C, followed by washing (by centrifugation at 300 g and resuspension) in ice cold culture media to remove excess unbound antibody and then incubated back in ice cold labeling buffer containing secondary antibody conjugated to Alexa Fluor […] (Thermo Fisher) for a further 30 min at 4°C. Cells were then washed twice in ice cold neat RPMI and resuspended to 100 μL of neat ice cold RPMI before 80 μL of the cell suspension was seeded onto 13 mm diameter glass coverslips (thickness = “1”), which were pre-coated with PLL-coated the night before. The seeded cells were placed into a humidified cell culture incubator at 37°C and 5% CO2 for 10 min to drive clustering. Adhered cells were flooded in excess 4% paraformaldehyde and fixed for 15 min at room temperature. Fixed coverslips were washed 3 times in PBS and then treated in 10 mg/mL of Sodium Borohydride dissolved in phosphate buffered saline for 10 min at room temperature (to eliminate autofluorescence and enhance signal to noise ratios). Coverslips were subsequently washed in PBS to remove sodium borohydride and mounted using DAKO mounting medium.
FLIM measurement of FRET was performed with a multiphoton microscope system as described previously ([8], [23]). A Nikon TE2000E inverted microscope, combined with an in-house scanner and Chameleon Ti:Sapphire ultrafast pulsed multiphoton laser (Coherent Inc.), was used for excitation of GFP (at 890 nm). Fluorescence lifetime imaging capability was provided by time-correlated, single-photon counting electronics (SPC 700; Becker & Hickl). A 40 × objective (NA 1.3) was used throughout (CFI60 Plan Fluor; Nikon), and data were acquired at 500 ± 20 nm through a bandpass filter (35–5040; Coherent Inc.). […]

ERM = details: biochemically and in cells; cited from earlier work
Description: The cytoplasmic tail of L-s ...

[2] = system: THP-1 cells over TNF-α-activated HUVEC; assay: Pseudopod protrusion scoring in TEM under flow; format: cell-based, human
Description: (A) The number of protrusions formed over this period was scored as: zero, one, two, or >2. (B) The percentages of cells bearing these protrusions were scored at specific time points: 6 min (blue bars), 15 min (green bars), or 25 min (red bars). Supplementary Videos 2, 3, 4 provide examples of cells producing a range of protrusions as TEM proceeds. Data represent SEM of 3 fields of view per flow experiment, conducted on three separate occasions, and at least 180 cells analyzed per group. Values of the vertical lines indicate the differences in protrusion number (specifically “zero” and “two”) corresponding to each of the cell lines, for which statistical significance is shown in Table 1.
All flow experiments were performed using a 35 mm diameter Glycotech parallel plate flow chamber. Perfusion experiments were performed at 1.5 dyn/cm^2 using a Harvard Apparatus 2000 PHD syringe pump. Perfusion media consisted of: RPMI supplemented with L-glutamine, 10% FCS, 1% penicillin/streptomycin, 50 μM β-mercaptoethanol, and 25 mM HEPES. Human Umbilical Vein Endothelial Cells (HUVEC–Lonza) were seeded onto 35 mm diameter glass coverslips (no. 1 thickness; VWR) that were pre-coated with 10 μg/mL fibronectin (37°C for at least 1 h). Before each perfusion assay, HUVEC were stimulated overnight (16 h) with 10 ng/mL carrier-free recombinant human TNF-α (R&D Systems). Each perfusion assay was performed by injecting a bolus of cells for 6 min, followed by just perfusion media (without cells) for the […]. THP-1 cells were perfused at a density of 0.5 ×10^6 cells per mL. THP-1 cells treated with 10 μM TAPI-0 required a preincubation time of 10 min at 37°C before perfusion over TNF-α-activated HUVEC. Note that 10 μM TAPI-0 was also supplemented in the perfusate. Stills were acquired once every 10 seconds using 10 × objective lens.

calmodulin = details: transmigrating pseudopods; ref previously published (no number given at b28; b24 cites ref 8); cited from earlier work

CCCCCCCCCCCCCC(=O)O[C@@H]1[C@@H](C)[C@@]2(O)[C@@H](C=C(CO)C[C@]3(O)C(=O)C(C)=C[C@@H]23)[C@@H]2C(C)(C)[C@]12OC(C)=O [PMA, phorbol myristate acetate]
serine phosphorylation of L-selectin [1]: serine phosphorylation was detected only when cells were robustly stimulated with the phorbol ester, PMA

B1: R357A: ERM-binding mutant of L-selectin, arginine 357 mutated to alanine (protein)
chain: WTYHYSEKPMNWQRARRFCRDNYTDLVAIQNKAEIEYLEKTLPFSRSYYWIGIRKIGGIWTWVGTNKSLTEEAENWGDGEPNNKKNKEDCVEIYIKRNKDAGKWNDDACHKLKAALCYTASCQPWSCSGHGECVEIINNYTCNCDVGYYGPQCQFVIQCEPLEAPELGTMDCTHPLGNFSFSSQCAFSCSEGTNLTGIEETTCGPFGNWSSPEPTCQVIQCEPLSAPDLGIMNCSHPLASFSFTSACTFICSEGTELIGKKKTICESSGIWSNPSPICQKLDKSFSMIKEGDYNPLFIPVAVMVTAFSGLAFIIWLARALKKGKKSKRSMNDPY
modifications: left off: eGFP (donor copy) or mCherry (acceptor copy, called RFP), C-terminal, kept
change in FRET efficiency on AMC or versus comparator (in words) (THP-1 cells): lacked any significant increase in FRET efficiency
FRET efficiency after AMC (THP-1 cells; 10 min at 37°C, GFP/RFP pair, at least 45 cells, 3 independent assays): 2.47%
L-selectin/ERM interaction (ERM): block L-selectin/ERM interaction

B2: S367A: L-selectin with Ser^367 mutated to alanine, GFP-tagged, expressed in THP-1 cells (protein, UniProt P14151 39-372, looked up, variant S367A)
L-selectin: B1 chain with A319R, S329A
modifications: C-terminal GFP tag
protrusive activity profile in TEM (in words) ([2]; 6, 15 and 25 min of flow over TNF-α-activated HUVEC): possessed the fewest protrusions over the recorded period, differing significantly from WT and S364A L-selectin-expressing cell lines
cells with 2 protrusions ([2]; 15 min time point, mean of 3 fields of view per flow experiment, three occasions, at least 180 cells per group, significance ** S367A p ≤ 0.01 (Tukey), % printed): 13.7%
cells with 0 protrusions ([2]; 15 min time point, mean of 3 fields of view per flow experiment, three occasions, at least 180 cells per group, significance *** S367A p ≤ 0.001, ** SSAA p ≤ 0.01 (Tukey), % printed): 34.4%
interaction of calmodulin with L-selectin (calmodulin): significantly reduced interaction of calmodulin
